Results taken from paper PMC6495647.
pKd: −log10 of the molar value.

Assays:
[1] = target: MucA’ protein (plasmid pKM101 (host species not stated)); test: SEC; Superdex 75 XK 16/60, 20 mM HEPES pH 7.4, 10% glycerol, 150 mM NaCl, 0.1 mM EDTA, 1 mM DTT; 1 ml of 2.5 mg/ml MucA’ applied; calibrated with protein standards
RecA = RecA (UniProt P0A7G6); test: SPR; another set of experiments; calculated KD for MucB and RecA; details not told
[2] = target: β-subunit of DNA polymerase III holoenzyme of E. coli (E. coli) (UniProt P0A988); test: SPR; BIAcore 2000, kinetic analysis at lower ligand densities (577 RU of immobilized β, 1036 RU of immobilized MucA’ on CM5); MucB in the mobile phase; BSA reference cell; apparent constants; data not shown
β-subunit of DNA polymerase III holoenzyme of E. coli (E. coli), sequence (P0A988 whole entry): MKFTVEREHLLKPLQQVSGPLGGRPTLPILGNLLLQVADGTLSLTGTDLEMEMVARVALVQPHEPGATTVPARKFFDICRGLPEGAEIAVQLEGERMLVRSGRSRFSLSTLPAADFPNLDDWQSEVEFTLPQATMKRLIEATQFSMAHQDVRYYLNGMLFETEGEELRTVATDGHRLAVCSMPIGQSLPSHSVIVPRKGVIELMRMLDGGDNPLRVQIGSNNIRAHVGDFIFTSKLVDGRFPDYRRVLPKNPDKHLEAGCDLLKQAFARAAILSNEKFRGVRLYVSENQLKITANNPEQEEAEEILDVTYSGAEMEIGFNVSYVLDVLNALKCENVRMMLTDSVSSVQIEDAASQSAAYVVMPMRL

RecA, sequence (P0A7G6 whole entry): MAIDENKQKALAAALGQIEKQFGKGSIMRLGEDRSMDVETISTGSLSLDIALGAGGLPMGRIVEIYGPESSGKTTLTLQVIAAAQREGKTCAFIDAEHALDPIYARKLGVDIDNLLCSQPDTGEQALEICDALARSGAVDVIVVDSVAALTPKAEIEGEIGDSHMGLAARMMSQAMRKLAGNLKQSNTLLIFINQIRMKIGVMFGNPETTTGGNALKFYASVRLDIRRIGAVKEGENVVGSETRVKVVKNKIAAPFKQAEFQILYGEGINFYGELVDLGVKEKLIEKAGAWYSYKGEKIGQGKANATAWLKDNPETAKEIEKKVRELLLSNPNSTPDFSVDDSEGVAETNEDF

Row | Substance | stoichiometry N [1] | pKd (RecA) | pKd [2] | amount bound (RU) [2] [RU] | koff [2] [s⁻¹] | kon [2] [M⁻¹ s⁻¹]
1 | MucA’ protein (natural protein) | 2 |  |  |  |  | 
2 | MucB protein (from UniProt P07375 1-420) (enzyme) |  | 8.62 | 9.51 | 349 | 1.2e-05 | 38700
